How the values were obtained:
[1] = in vitro biochemical assay for beta-etherase activity on fluorescent substrate MUAV (clarified E. coli cell extracts); conditions: 0.1 mM MUAV substrate; E. coli cell extracts expressing the protein
Description: The model substrate synthesis 150 for use in the biochemical screening for selective activity can be outsourced through a contract research organization (CRO). The enzyme discovery effort can initially be focused on identifying potential beta-etherase candidate genes identified through bioinformatic methods. […] The fluorescent substrate α-O-(β-methylumbelliferyl)acetovanillone (MUAV), for example, can be used in in vitro assays to identify beta-etherase function (Acme Biosciences, Mt. View, Calif.). The formation of 4 methylumbelliferone (4MU) upon hydrolysis of the aryl ether bond can be monitored by fluorescence, for example, at λex=365 nm and λem=450 nm (or 460 nm).
The enzyme screening 155 is done to identify novel etherases 160. […] Expression of the beta-etherase genes can be done in 5 ml or 25 ml samples of the recombinant E. coli strains in LB medium using induction with IPTG. Following induction, and cell harvest, cell pellets can be lysed using the BPER (Invitrogen) cell lysis system. […] The formation of 4 methylumbelliferone (4MU) upon hydrolysis of the aryl ether bond in MUAV can be monitored by fluorescence at λex=365 nm and λem=460 nm, and can provide quantitative measurement of beta-etherase function. Cell extracts of E. coli transformed with the S. paucimobilis ligE and ligF genes can be the assay positive controls. Test or unknown samples can include, for example, E. coli strains expressing putative beta-etherase genes from N. aromaticovorans.
This example describes a method for gene expression in E. coli, as well as beta-etherase biochemical assays. Expression of known and putative beta-etherase genes was performed using 5 ml cultures of the recombinant E. coli strains described herein in Luria Broth medium by induction of gene expression using isopropylthiogalactoside (IPTG) to a final concentration of 0.1 mM. Following induction, and cell harvest, the cells were disrupted using either sonication or the BPER (Invitrogen) cell lysis system.
In vitro reactions were performed in a total volume of 200 ul and contained: 25 mM TrisHCl pH 7.5; 0.5 mM dithiothreitol; 1 mM glutathione; 0.05 mM or 0.1 mM MUAV; 10 ul of clarified cell extract used to initiate the reactions. Following incubation for 2.5 hours at room temperature, a 50 ul sample of the reactions was terminated using 150 uL of 300 mM glycine/NaOH buffer pH 9. The formation of 4 methylumbelliferone (4MU) upon hydrolysis of the aryl ether bond was monitored by the increase in fluorescence at λex=360 nm and λem=450 nm using a Spectramax UV/visible/fluorescent spectrophotometer.
The total protein concentrations of the cell lysates were determined using the BCA reagent system for protein quantification (Pierce).
Induction might be also performed using IPTG concentrations in the range of 0.01-1 mM. Cell disruption might be also performed using toluene permeabilization, French pressure techniques, or using multiple freeze/thaw cycles in conjunction with lysozyme. Assay conditions might be varied to include TrisHCl at 10-150 mM concentrations and in the pH range of 6.5-8.5; 0-2 mM dithiothreitol; 0.05-2 mM glutathione; 0.01-5 mM MUAV substrate; 22-42° C. reaction temperatures. The biochemical assay might be performed as a fixed time point assay with reaction times ranging from 5 minutes-12 hours, or performed continuously without quenching with glycine/NaOH buffer to extract enzyme kinetic parameters.

[2] = LigDFEG gene cluster, FIG. 2B; cited from earlier work

B1: LigF: S. paucimobilis beta-etherase, positive control, GenBank BAA02031.1, SEQ ID NO:513 (protein)
chain: MTLKLYSFGPGANSLKPLATLYEKGLEFEQVFVDPSKFEQHSDWFKKINPRGQVPALWHDGKVVTESTVICEYLEDVFPESGNSLRPADPFKRAEMRVWTKWVDEYFCWCVSTIGWAFGIKAIAQKMSDEEFEEHINKNVPIPEQQLKWRRARNGFPQEMLDEEFRKVGVSVARLEETLSKQDYLVDTGYSLADICNFAIANGLQRPGGFFGDYVNQEKTPGLCAWLDRINARPAIKEMFEKSKREDLLKRQNEKVA
[1]
  total activity (beta-etherase): 558 rfu/ug
[2]
  enzyme activity shown by gene product: β-etherase activity
